{"source": "paper PMC4960544", "about": "“Production of full-length soluble Plasmodium falciparum RH5 protein vaccine using a Drosophila melanogaster Schneider 2 stable cell line system” (Scientific Reports, 2016)", "binders": {"B1": {"name": "recombinant basigin, immunoglobulin domains 1 and 2 of the short isoform (22-205) (domain or fragment)", "chain": "GAAGTVFTTVEDLGSKILLTCSLNDSATEVTGHRWLKGGVVLKEDALPGQKTEFKVDSDDQWGEYSCVFLPEPMGTANIQLHGPPRVKAVKSSEHINEGETAMLVCKSESVPPVTDWAWYKITDSEDKALMNGSESRFFVSSSQGRSELHIENLNMEADPGQYRCNGTSSKGSDQAIITLRVRSH", "notes": "additional glycine left at the N-terminus from the TEV cleavage site; basigin (CD147), immunoglobulin domains 1 and 2 of the short isoform, residues 22-205; numbers count on: the short isoform; basigin is spoken of as the red blood cell receptor of the human malaria parasite; also called CD147; PfRH5 receptor; not shown: His6, N-terminal, cleaved"}}, "key": {"[1]": {"biological_target": "T1, PfRH5 protein variant version 1.0 (7G8 sequence, four N-linked glycosylation sequons mutated Thr to Ala) (Plasmodium falciparum (7G8 …, UniProt Q8IFM5 26-526, C203Y | Thr to Ala in the sequon starting at N38 (position 40 worked out) | Thr …))", "T1 construct": "The construct has an N-terminal 18-residue BiP insect signal peptide (…) in place of the native one; No cleavage site for the His6 tag is described; also called PfRH5 v1.0; v1.0", "T1 sequence": "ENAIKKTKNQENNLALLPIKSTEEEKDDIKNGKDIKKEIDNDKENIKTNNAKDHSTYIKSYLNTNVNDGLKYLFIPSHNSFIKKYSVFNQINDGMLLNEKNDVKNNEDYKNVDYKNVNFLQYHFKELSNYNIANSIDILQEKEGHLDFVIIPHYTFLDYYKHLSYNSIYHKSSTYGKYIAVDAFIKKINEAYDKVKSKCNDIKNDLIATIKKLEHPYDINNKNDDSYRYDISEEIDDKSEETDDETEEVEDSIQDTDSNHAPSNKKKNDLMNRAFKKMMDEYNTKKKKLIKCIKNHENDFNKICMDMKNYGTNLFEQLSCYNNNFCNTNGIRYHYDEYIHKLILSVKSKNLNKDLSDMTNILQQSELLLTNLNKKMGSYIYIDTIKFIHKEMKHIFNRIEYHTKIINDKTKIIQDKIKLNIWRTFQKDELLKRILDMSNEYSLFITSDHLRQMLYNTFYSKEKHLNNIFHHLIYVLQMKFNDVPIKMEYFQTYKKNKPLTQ", "test": "SPR; basigin immobilised on a CM5 chip by amine coupling (850 RU); PfRH5 variant injected at 8-0.0625 uM, 120 s at 30 uL/min, 300 s dissociation; 20 C; 10 mM HEPES pH 7.4, 150 mM NaCl, 3 mM EDTA, 0.005% Tween-20, 2 mg/mL dextran, 1 mg/mL salmon sperm DNA; blank surface subtracted; global 1:1 interaction model", "settings": "both partners purified"}, "[2]": {"biological_target": "T2, PfRH5 protein variant version 4.0 (3D7 sequence, N38Q and N214Q) (Plasmodium falciparum (3D7 clone), UniProt Q8IFM5 26-526, N38Q | N214Q)", "T2 construct": "only two of the putative N-linked glycosylation sites mutated (N38Q and N214Q); The construct has an N-terminal BiP insect signal peptide (…); No cleavage site for the His6 tag is described; No evidence of glycosylation was found for this variant; also called PfRH5 v4.0; v4.0; source: without the Con A step", "T2 sequence": "T1 sequence with N13Q, A15T, Y178C, N189Q, A191T, A261T, A274T", "test": "SPR; basigin immobilised on a CM5 chip by amine coupling (850 RU); PfRH5 variant injected at 8-0.0625 uM, 120 s at 30 uL/min, 300 s dissociation; 20 C; 10 mM HEPES pH 7.4, 150 mM NaCl, 3 mM EDTA, 0.005% Tween-20, 2 mg/mL dextran, 1 mg/mL salmon sperm DNA; blank surface subtracted; global 1:1 interaction model", "settings": "both partners purified"}}, "note": "Substitutions are numbered along the chain they refer to.", "data": [{"binder": "B1", "values": [{"measurement": "binding result", "setting": "[1]", "result": "binds"}, {"measurement": "binding result", "setting": "[2]", "result": "binds"}]}]}
